Consider 77 sequences from the supplement of paper PMC7877785.

± gives the uncertainty stated by the source.

The nature of this data set: self-splicing fitness, log relative to wild type (ln ratio); higher = more splicing; Tetrahymena group I intron in knt gene, E. coli kanamycin selection, DiMSum; sequences stand for … in CUCUCU…GGAGGGAAAAGUUAUCAGGCAUGCACCUGGUAGCUAGUCUUUAAACCAAUAGAUUGCAUCGGUUUAAAAGGCAAGACCGUCAAAUUGCGGGAAAGGGGUCAACAGCCGUUCAGUACCAAGUCUCAGGGGAAACUUUGAGAUGGCCUUGCAAAGGGUAUGGUAAUAAGCUGACGGACAUGGUCCUAACCACGCAGCCAAGUCCUAAGUCAACAGAUCUUCUGUUGAUAUGGAUGCAGUUCACAGACUAAAUGUCGGUCGGGGAAGAUGUAUUCUUCUCAUAAGAUAUAGUCGGACCUCUCCUUAAUGGGAGCUAGCGGAUGAAGUGAUGCAACACUGGAGCCGCUGGGAACUAAUUUGUAUGCGAAAGUAUAUUGAUUAGUUUUGGAGUACUCGUGGUCG
Put shortly:
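Fitness was computed with DiMSum as the error-weighted combination of replicate fold changes, kanamycin versus none, each normalised to wild type. The library randomised all eight intron nucleotides of the P1ex region, with the intron placed in the knt kanamycin-resistance gene on pET-22b(+) in E. coli BL21(DE3). Six replicate transformations were grown overnight at 37°C or 30°C on LB agar with or without 25 μg/mL kanamycin, plus 100 μg/mL carbenicillin, 50 μM IPTG and 0.2% rhamnose. Pooled colonies were amplicon-sequenced on an Illumina HiSeq 2500.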

As to GCUUAGCAAUAUUACGGCCA, the “self-splicing fitness (ln)” value (37 °C) was -0.846 ± 0.27. Turning to GCUUAGCAAUAUUACGGCCC, where the note is “30 °C”, the “self-splicing fitness (ln)” value was 0.0255 ± 0.31. As for GCUUAGCAAUAUUACGGGUC, the “self-splicing fitness (ln)” value was -3.24 ± 0.23 (30 °C) and -2.31 ± 0.28 (37 °C). Taken in the same sequence, the figures for GCUUAGCAAUAUUACGGUCG were -1.78 ± 0.12 and -1.41 ± 0.16.

Turning to GCUUAGCAAUAUUACGGUGG, the “self-splicing fitness (ln)” value (30 °C) is -2.24 ± 0.19 and the “self-splicing fitness (ln)” value (37 °C) was -2.38 ± 0.28. The like results for GCUUAGCAAUAUUACGGUUU were, in that order, -1.4 ± 0.068 and -0.908 ± 0.074.

As to GCUUAGCAAUAUUACGUAAG, the “self-splicing fitness (ln)” value runs as follows: (30 °C) -2.18 ± 0.12; (37 °C) -0.181 ± 0.17. The like results for GCUUAGCAAUAUUACGUCUC were, in that order, -0.196 ± 0.096 and 0.386 ± 0.1.

With GCUUAGCAAUAUUACGUGCC, the “self-splicing fitness (ln)” value by setting is: (30 °C) -3.64 ± 0.35; (37 °C) -0.354 ± 0.14. The like results for GGAAAGCAAUAUUACGACUG were, in that order, -1.93 ± 0.15 and -0.134 ± 0.19.

For the sequence GGAAAGCAAUAUUACGAUAG, the “self-splicing fitness (ln)” value (30 °C) was -3.1 ± 0.34 and the “self-splicing fitness (ln)” value (37 °C) was -1.16 ± 0.2.

Consider GGAAAGCAAUAUUACGCAAA, for which the “self-splicing fitness (ln)” value is, setting by setting: (30 °C) -2.42 ± 0.28; (37 °C) -1.05 ± 0.25. As for GGAAAGCAAUAUUACGCAGG, the “self-splicing fitness (ln)” value by setting is: (30 °C) -2.91 ± 0.15; (37 °C) -2.71 ± 0.22. On to GGAAAGCAAUAUUACGCCAG, for which, for the setting “37 °C”, the “self-splicing fitness (ln)” value is -0.912 ± 0.35. With GGAAAGCAAUAUUACGCCCG, the “self-splicing fitness (ln)” value (30 °C) is -0.767 ± 0.21 and the “self-splicing fitness (ln)” value (37 °C) was -0.0766 ± 0.23. The like results for GGAAAGCAAUAUUACGCGCG were, in that order, -0.394 ± 0.08 and -0.275 ± 0.12.

For the sequence GGAAAGCAAUAUUACGCGUG, the “self-splicing fitness (ln)” value is -0.941 ± 0.054 (30 °C) and -0.486 ± 0.071 (37 °C). The like results for GGAAAGCAAUAUUACGGCAU were, in that order, -1.03 ± 0.13 and -0.672 ± 0.15. Taken in the same sequence, the figures for GGAAAGCAAUAUUACGGGAC were -2.53 ± 0.1 and -1.18 ± 0.11. Regarding GGAAAGCAAUAUUACGGGUU, the “self-splicing fitness (ln)” value is, setting by setting: (30 °C) -2.99 ± 0.13; (37 °C) -0.727 ± 0.11. Regarding GGAAAGCAAUAUUACGGUUG, where the note is “37 °C”, the “self-splicing fitness (ln)” value is -1.2 ± 0.26. Consider GGAAAGCAAUAUUACGGUUU, for which the “self-splicing fitness (ln)” value by setting is: (30 °C) -1.02 ± 0.061; (37 °C) -0.46 ± 0.082. Taken in the same sequence, the figures for GGAAAGCAAUAUUACGUAGA were -0.977 ± 0.1 and -1.4 ± 0.17.

Consider GGAAAGCAAUAUUACGUAUG, for which the “self-splicing fitness (ln)” value was -2.27 ± 0.1 (30 °C) and -2.04 ± 0.15 (37 °C). The like results for GGAAAGCAAUAUUACGUCGC were, in that order, -0.897 ± 0.17 and -0.926 ± 0.2.

For the sequence GGAAAGCAAUAUUACGUGGC, the “self-splicing fitness (ln)” value (30 °C) is -2.85 ± 0.38 and the “self-splicing fitness (ln)” value (37 °C) was -2.46 ± 0.34. With GGAAAGCAAUAUUACGUGGG, the “self-splicing fitness (ln)” value is -3.72 ± 0.19 (30 °C) and -1.47 ± 0.11 (37 °C). Taken in the same sequence, the figures for GGAAAGCAAUAUUACGUUCA were 0.00884 ± 0.082 and 0.0862 ± 0.13.

Turning to GGAAAGCAAUAUUACGUUCG, the “self-splicing fitness (ln)” value (30 °C) is -0.612 ± 0.097 and the “self-splicing fitness (ln)” value (37 °C) is -0.624 ± 0.14. The like results for GGAAAGCAAUAUUACGUUCU were, in that order, -3.94 ± 0.21 and -3.07 ± 0.23. The like results for GGACAGCAAUAUUACGAAGG were, in that order, -3.1 ± 0.24 and -2.38 ± 0.39. Taken in the same sequence, the figures for GGACAGCAAUAUUACGACAU were -0.378 ± 0.012 and -0.0143 ± 0.032. Turning to GGACAGCAAUAUUACGAGAA, the “self-splicing fitness (ln)” value by setting is: (30 °C) -2.45 ± 0.36; (37 °C) -1.54 ± 0.25. Regarding GGACAGCAAUAUUACGAGAG, the “self-splicing fitness (ln)” value is -3.81 ± 0.18 (30 °C) and -2.09 ± 0.11 (37 °C). On to GGACAGCAAUAUUACGAGCA, for which the “self-splicing fitness (ln)” value is -0.424 ± 0.47 (30 °C) and -0.637 ± 0.4 (37 °C).

For GGACAGCAAUAUUACGAGCG, the “self-splicing fitness (ln)” value is, setting by setting: (30 °C) -0.482 ± 0.081; (37 °C) 0.0554 ± 0.12. Taken in the same sequence, the figures for GGACAGCAAUAUUACGAUGG were -2.41 ± 0.1 and -2.05 ± 0.13. Taken in the same sequence, the figures for GGACAGCAAUAUUACGAUUG were -1.09 ± 0.12 and -1.15 ± 0.19. The like results for GGACAGCAAUAUUACGCCAA were, in that order, -0.506 ± 0.14 and -1.24 ± 0.23. For the sequence GGACAGCAAUAUUACGCCUA, the “self-splicing fitness (ln)” value (30 °C) is -0.825 ± 0.11 and the “self-splicing fitness (ln)” value (37 °C) is -0.478 ± 0.11. Taken in the same sequence, the figures for GGACAGCAAUAUUACGCGAA were -1.07 ± 0.08 and -0.612 ± 0.094. The like results for GGACAGCAAUAUUACGGACC were, in that order, -1.35 ± 0.19 and -1.02 ± 0.23. In the case of GGACAGCAAUAUUACGGCCG, the “self-splicing fitness (ln)” value (30 °C) was -0.0795 ± 0.14 and the “self-splicing fitness (ln)” value (37 °C) is -0.000523 ± 0.19.

As for GGACAGCAAUAUUACGGGCG, the “self-splicing fitness (ln)” value (30 °C) is -0.664 ± 0.075 and the “self-splicing fitness (ln)” value (37 °C) is -0.0669 ± 0.09. The like results for GGACAGCAAUAUUACGGUCU were, in that order, -3.84 ± 0.24 and -1.18 ± 0.2. Consider GGACAGCAAUAUUACGUCGG, for which the “self-splicing fitness (ln)” value runs as follows: (30 °C) -0.852 ± 0.099; (37 °C) -0.674 ± 0.14. As for GGACAGCAAUAUUACGUGAG, the “self-splicing fitness (ln)” value reads like this: (30 °C) 0.177 ± 0.058; (37 °C) -0.254 ± 0.062.

Turning to GGACAGCAAUAUUACGUGCG, the “self-splicing fitness (ln)” value is -0.326 ± 0.064 (30 °C) and 0.365 ± 0.087 (37 °C).

Take GGACAGCAAUAUUACGUUCA: the “self-splicing fitness (ln)” value reads like this: (30 °C) -0.478 ± 0.086; (37 °C) -0.434 ± 0.1. Regarding GGACAGCAAUAUUACGUUUC, the “self-splicing fitness (ln)” value was -3.16 ± 0.28 (30 °C) and -1.82 ± 0.32 (37 °C).

For GGAGAGCAAUAUUACGAGCA, the “self-splicing fitness (ln)” value runs as follows: (30 °C) -1.17 ± 0.35; (37 °C) -1.86 ± 0.34. As to GGAGAGCAAUAUUACGAGUC, the “self-splicing fitness (ln)” value (30 °C) is -3.63 ± 0.35.

For GGAGAGCAAUAUUACGAUAA, the “self-splicing fitness (ln)” value (37 °C) was -0.957 ± 0.43. With GGAGAGCAAUAUUACGCAUC, the “self-splicing fitness (ln)” value is, setting by setting: (30 °C) -3.08 ± 0.28; (37 °C) -2.85 ± 0.43.

For GGAGAGCAAUAUUACGCGUA, the “self-splicing fitness (ln)” value is, setting by setting: (30 °C) -2.02 ± 0.37; (37 °C) -1.42 ± 0.27.

GGAGAGCAAUAUUACGGAAG: the “self-splicing fitness (ln)” value is, setting by setting: (30 °C) -2.47 ± 0.32; (37 °C) -0.843 ± 0.41. The like results for GGAGAGCAAUAUUACGGCAU were, in that order, -2.03 ± 0.22 and 0.206 ± 0.22.

Regarding GGAGAGCAAUAUUACGGCCG, the “self-splicing fitness (ln)” value (30 °C) is -3.74 ± 0.42 and the “self-splicing fitness (ln)” value (37 °C) is -2.16 ± 0.42. Turning to GGAGAGCAAUAUUACGGGCA, the “self-splicing fitness (ln)” value (30 °C) is -2.49 ± 0.24 and the “self-splicing fitness (ln)” value (37 °C) is -1.22 ± 0.21. Taken in the same sequence, the figures for GGAGAGCAAUAUUACGGUGA were -2.27 ± 0.2 and -1.46 ± 0.21. The like results for GGAGAGCAAUAUUACGUACU were, in that order, -1.1 ± 0.12 and -1.16 ± 0.14. Taken in the same sequence, the figures for GGAGAGCAAUAUUACGUCAA were -2.93 ± 0.31 and -3.54 ± 0.46. For GGAGAGCAAUAUUACGUCCA, the “self-splicing fitness (ln)” value is -2.78 ± 0.2 (30 °C) and -0.872 ± 0.18 (37 °C).

GGAGAGCAAUAUUACGUGAA: the “self-splicing fitness (ln)” value reads like this: (30 °C) -0.689 ± 0.2; (37 °C) -2.2 ± 0.4. Turning to GGAGAGCAAUAUUACGUUAU, the “self-splicing fitness (ln)” value (30 °C) was -3.27 ± 0.23 and the “self-splicing fitness (ln)” value (37 °C) is -2.98 ± 0.32.

In the case of GGAUAGCAAUAUUACGAAGU, the “self-splicing fitness (ln)” value (30 °C) was -2.68 ± 0.29 and the “self-splicing fitness (ln)” value (37 °C) was -2.02 ± 0.25. As for GGAUAGCAAUAUUACGAAUG, the “self-splicing fitness (ln)” value is -2.73 ± 0.18 (30 °C) and -1.87 ± 0.2 (37 °C).

With GGAUAGCAAUAUUACGACCA, the “self-splicing fitness (ln)” value was -0.97 ± 0.092 (30 °C) and -0.392 ± 0.13 (37 °C). As for GGAUAGCAAUAUUACGACGC, the “self-splicing fitness (ln)” value runs as follows: (30 °C) -0.274 ± 0.11; (37 °C) 0.262 ± 0.12. The like results for GGAUAGCAAUAUUACGAGGU were, in that order, -2.75 ± 0.29 and -2.7 ± 0.18.

Turning to GGAUAGCAAUAUUACGAGUA, the “self-splicing fitness (ln)” value was -2.54 ± 0.48 (30 °C) and -1.14 ± 0.16 (37 °C). GGAUAGCAAUAUUACGAUAA: the “self-splicing fitness (ln)” value is, setting by setting: (30 °C) -1.51 ± 0.19; (37 °C) -1.46 ± 0.2. Consider GGAUAGCAAUAUUACGCACA, for which the “self-splicing fitness (ln)” value by setting is: (30 °C) -0.523 ± 0.12; (37 °C) 0.321 ± 0.14.

As to GGAUAGCAAUAUUACGCCGG, the “self-splicing fitness (ln)” value (37 °C) is -1.28 ± 0.42. Consider GGAUAGCAAUAUUACGCGAG, for which the “self-splicing fitness (ln)” value is -1.38 ± 0.15 (30 °C) and -1.16 ± 0.14 (37 °C). For GGAUAGCAAUAUUACGCGUU, the “self-splicing fitness (ln)” value (30 °C) is -1.98 ± 0.42 and the “self-splicing fitness (ln)” value (37 °C) is -2.06 ± 0.47. The like results for GGAUAGCAAUAUUACGCUCA were, in that order, 0.156 ± 0.15 and -0.278 ± 0.15.
